{"source": "patent US6066485A", "about": "“Growth factor inducible serine/threonine phosphatase fin13” (New York University, priority 1997, dated 2000)", "molecules": {"B1": {"name": "his-FIN13: purified full length FIN13 expressed in bacteria as fusion protein with N- and C-terminal his-tags (protein)", "chain": "MTIEELLTRYGQNCQKVPPHTKSGIGTGDEPGPQGLNGEAGPEDPSRETPSQENGPTAKGHTGFSSNSEHGTEAGQISEPGTATGEAGPSCSSASDKLPRVAKSKFFEDSEDESDEVEEEEDDSEECSEDEDGYSSEEAENEEDEDDTEEAEEDDDEEMMVPGMEGKEEPGSDSGTTAVVALIRGKQLIVANAGDSRCVVSEAGKALDMSYDHKPEDEVELARIKNAGGKVTMDGRVNGGLNLSRAIGDHFYKRNKNLPPQEQMISALPDIKVLTLTDDHEFMVIACDGIWNVMSSQEVVDFIQSKISQRDENGELRLLSSIVEELLDQCLAPDTSGDGTGCDNMTCIIICFKPRNTVELQAESGKRKLEEALSTEGAEDTGNSDKKKAKRD"}, "B2": {"name": "FIN13: novel FGF-inducible type 2C serine/threonine phosphatase (protein)", "chain": "B1 chain"}, "B3": {"name": "his-FIN13-cat: catalytic domain of FIN13 (amino acids 195 to 392) with N- and C-terminal poly(6)-histidine tags (protein)", "chain": "DSRCVVSEAGKALDMSYDHKPEDEVELARIKNAGGKVTMDGRVNGGLNLSRAIGDHFYKRNKNLPPQEQMISALPDIKVLTLTDDHEFMVIACDGIWNVMSSQEVVDFIQSKISQRDENGELRLLSSIVEELLDQCLAPDTSGDGTGCDNMTCIIICFKPRNTVELQAESGKRKLEEALSTEGAEDTGNSDKKKAKRD"}}, "key": {"[1]": {"system": "HeLa cells", "experiment": "BrdU incorporation in transiently transfected HeLa cells", "format": "cell-based, human", "conditions": "summary of Table 1", "experimental": "Bromodeoxyuridine (BrdU) incorporation. The effect of FIN13 expression on BrdU incorporation was determined in HeLa cells growing asynchronously in DMEM/10% calf serum. Cells were plated at 10000 cells/ml on coverslips and after 24 h were transfected with 10 μg of either pRKERK2-HA, CMVβ or pRKFIN13. Twenty four hours after transfection the medium was changed and the cells were incubated with BrdU labelling reagent (10 μl) for a further 12 h according to the suppliers instructions (Boehringer Mannheim). Following labelling, coverslips were rinsed in PBS and cells were fixed in 70% ethanol-50 mM glycine (pH 2.0) overnight at -20° C. Incorporated BrdU was detected with FITC-conjugated anti-BrdU (Boehringer Mannheim) by immunocytochemistry (see below).\nImmunocytocliemistry. Fixed cells on coverslips were washed twice in PBS and twice in PBS/0.02% BSA followed by incubation with the primary antibody diluted in PBS/0.02% BSA for 1 hour at 37° C. (anti-FIN13 polyclonal serum at 1:200, anti-HA monoclonal antibody 12CA5 acities at 1:200 or anti-β-galactosidase GAL40 monoclonal antibody at 1:500). After washing, coverslips were incubated in secondary antibody as above (anti-rabbit Texas red at 1:200, anti-mouse Texas red at 1:200)(Molecular Probes). The coverslips were washed again and then incubated in […] (1:500) FITC-conjugated anti-BrdU (Boehringer Mannheim) as above. Where noted, cells were also stained with 1 μg/ml bis-benzimide (Hoechst #33342) in PBS. Coverslips were mounted and examined using a fluorescence microscope.\nCells Transiently Transfected with FIN13 are Blocked in the Cell Cycle. We have utilized a transient transfection approach to examine the effect of FIN13 expression on DNA synthesis and cell cycle progression. […] ERK2 is expressed as a nuclear protein in HeLa cells in the presence of 10% serum (Chen et al., Mol. Cell. Biol. 12:915-927 (1992)) while β-galactosidase is predominantly cytoplasmic. […] BrdU incorporation was detected using FITC-conjugated anti-BrdU antibodies."}, "[2]": {"target": "T1, his-FIN13 (Mus musculus, UniProt Q61074)", "T1 construct": "Purified his-tagged full length FIN13 (his-FIN13); made in house; host or cells: E. coli BL21(DE3)", "T1 sequence (Q61074 151-542 limits assumed)": "B1 chain", "experiment": "Phosphatase assay of bacterially expressed his-FIN13 with 32P-labelled casein", "format": "biochemical", "conditions": "for effect on his-FIN13 phosphatase activity: 20 μg/ml, 20 mg/ml in FIG. 5 legend", "experimental": "FIG. 5. Phosphatase activity of bacterially expressed FIN13. Purified his-tagged full length FIN13 (his-FIN13) or his-tagged catalytic domain FIN13 (his-FIN13-cat) were examined for their ability to dephosphorylate ^32 P-labelled cascin in vitro as described in the Materials and Methods. Phosphatase assays were performed in the absence of his-FIN13 (No FIN13; open bar) or with his-FIN13 incubated in the presence of 10 mM of the indicated divalent cation (MgCl2, ZnCl2, CaCl2 or MnCl2)(solid bars) or in the presence of the indicated mM concentrations of MnCl2 (half-tone bars). +EDTA: indicates his-FIN13 incubated in the presence of 10 mM EDTA and 10 mM MnCl2. his-FIN13-cat was incubated in the presence of the indicated mM concentrations of MnCl2 (cross-hatched bars). his-FIN13 was also incubated in the presence of 1 μM okadaic acid (OA), 20 mg/ml poly L-lysine (PL-L), 20 mg/ml protamine sulfate (PS). All incubations were performed for 1 h at 30° C.\nPreparation of ^32 P-labelled casein. Casein (10 mg)(Sigma) was labelled with ^32 P using 10U of the catalytic subunit of cAMP dependent protein kinase (Sigma) in 50 mM Tris-HCl pH 7.0, 0.1 mM EGTA, 10 mM Mg-acetate, 0.1% β-mercaptoethanol, and 0.5 mCi of ^32 PγATP for 12 h at 30° C. The reaction mixture was then precipitated at 4° C. in 20% TCA. Labelled casein was recovered by centrifugation, the pellet washed 5 times in 100% acetone and resuspended in 50 mM Tris-HCl, 0.1 mM EGTA.\nPhosphatase assay. The phosphatase activity of purified FIN13 expressed in bacteria as a fusion protein with N- and C-terminal his-tags was assessed in vitro using ^32 P-labelled casein as a substrate. For preparation of his-FIN13 and his-FIN13-cat from bacteria, the BL21(DE3) strain transformed with pEThis-FIN13 or pEThis-FIN13-cat were induced with 0.2 mM IPTG for 2 h following which the cells were recovered by centrifugation, resuspended in column buffer (50 mM sodium phosphate, pH 8.0, 300 mM NaCl, 1 mM PMSF) and frozen overnight at -70° C. The bacteria were then lysed by sonication at 4° C. and the extract cleared by centrifugation. The supernatant was then adsorbed to Ni-NTA-agarose (Qiagen) at 4° C. for 1 h. The resin was then washed extensively in column buffer without PMSF and his-FIN13 or his-FIN13-cat were eluted using 25 mM Tris-HCl pH 7.2, 100 mM NaCl containing […] imidazole (Sigma). In addition, the phosphatase activity of FIN13 expressed in HeLa cells was also determined in an immune complex using ^32 P-labelled casein as a substrate. For preparation of immune complexes of myc-FIN13, HeLa cells were transfected with […] of pRKmyc-FIN13 or pRK5. Cells were lysed 24 h after transfection in lysis buffer (10 mM Na-phosphate pH 7.4, 100 mM NaCl, 1% TRITON X-100, 10 mM EDTA) also containing a protease/phosphatase inhibitor cocktail (1 mM PMSF, 1 μg/ml pepstatin, 1 μg/ml leupeptin, 1 μg/ml aprotinin, 10 mM Na-orthovanadate, 80 mM NaF, 80 mM β-glycerolphosphate, 10 μM okadaic acid). Cleared lysates (100 μg total protein) were immunoprecipitated with anti-myc monoclonal antibody (9E10) adsorbed to 30 μl protein G sepharose (Zymed) or anti-FIN13 antiserum adsorbed to 30 μl protein A sepharose (Zymed) for 1.5 h at 4° C. The anti-FIN13 polyclonal antiserum (630) was generated against the full length his-FIN13 expressed and purified from bacteria. The IPs were then washed 5 times with lysis buffer, once with 10 mM Tris-HCl pH 7.0, 100 mM NaCl and 5 mM MnCl2, and twice with phosphatase reaction buffer (10 mM Tris-HCl pH 7.0, 0.1 mM EGTA, 10 mM DTT and 10 mM MnCl2) containing 1 μM okadaic acid. Purified his-FIN13, his-FIN13-cat or myc-lPs were then examined for phosphatase activity by incubating the indicated FIN13 preparation in the presence of phosphatase reaction buffer containing ^32 P-labelled casein (1×10^5 cpm; approx. 1 μl) at 30° C. for up to 2 h."}}, "data": [{"molecule": "ERK2-HA: control nuclear protein ERK2 expressed in HeLa cells", "values": [{"measurement": "cells expressing the protein observed to incorporate BrdU", "setting": "[1]", "value": "greater than 70%"}]}, {"molecule": "poly L-lysine", "values": [{"measurement": "effect on his-FIN13 phosphatase activity", "setting": "[2]", "value": "Neither poly L-lysine nor protamine sulfate significantly altered"}]}, {"molecule": "protamine sulfate", "values": [{"measurement": "effect on his-FIN13 phosphatase activity", "setting": "[2]", "value": "Neither poly L-lysine nor protamine sulfate significantly altered"}]}, {"molecule": "β-galactosidase: control protein, predominantly cytoplasmic", "values": [{"measurement": "cells expressing the protein observed to incorporate BrdU", "setting": "[1]", "value": "greater than 70%"}]}, {"molecule": "B1", "values": [{"measurement": "MnCl2 concentration giving maximal phosphatase activity", "setting": "[2]; 32P-labelled casein substrate", "value": 10, "unit": "mM"}, {"measurement": "phosphatase activity with other divalent cations", "setting": "[2]; in the presence of MgCl2, ZnCl2 or CaCl2 (10 mM)", "value": "No activity"}, {"measurement": "dephosphorylation of 32P-labelled casein", "setting": "[2]; in the presence of Mn2+ ions, 30° C.", "value": "able to dephosphorylate"}]}, {"molecule": "B2", "values": [{"measurement": "cells expressing the protein observed to incorporate BrdU", "setting": "[1]", "value": "10-17%"}]}, {"molecule": "B3", "values": [{"measurement": "phosphatase activity of catalytic domain", "setting": "[2]; 10 mM MnCl2", "value": "poor phosphatase activity"}, {"measurement": "phosphatase activity of catalytic domain", "setting": "[2]; 400 mM MnCl2", "value": "detectable"}]}]}
